In data set [1] the target is T1, RPA-DBD-D-Cy3;Rtt105-Cy5 (C13S) (Saccharomyces cerevisiae;Saccharomyces …, UniProt P22336;P26754;P26755;P40063 1-621;1-273;1-122;1-208, |C13S). Briefly: FRET titration; ssDNA-induced Rtt105 release from preformed RPA-Rtt105 (200 nM each); EMSA: 25 mM Tris-Cl pH 7.5, 200 mM NaCl, 5 mM MgCl2, 5% glycerol, 0.05% Tween-20, 25 C; anisotropy/FRET: 30 mM HEPES pH 7.8, 100 mM KCl, 6% glycerol, 5 mM MgCl2, 1 mM bME, 23 C (stopped flow 25 C). The conditions noted are these: protein: recombinant;recombinant; tags: Cy3 on DBD-D via 4AZP;Cy5 on Cys12; copies: 1;1;1;1. In general terms: In EMSA bound probe runs differently from free probe, usually more slowly.

For data set [2], the target named is T2, RPA (RPA70/RPA32/RPA14);Rtt105 (Saccharomyces cerevisiae;Saccharomyces …, UniProt P22336;P26754;P26755;P40063 1-621;1-273;1-122;1-208, |). The data set can be described thus: SEC; [RPA]2-(dT)70 without Rtt105, plus Rtt105-RPA-(dT)70; EMSA: 25 mM Tris-Cl pH 7.5, 200 mM NaCl, 5 mM MgCl2, 5% glycerol, 0.05% Tween-20, 25 C; anisotropy/FRET: 30 mM HEPES pH 7.8, 100 mM KCl, 6% glycerol, 5 mM MgCl2, 1 mM bME, 23 C (stopped flow 25 C). The conditions noted are these: protein: recombinant;recombinant; tags: ;; copies: 1;1;1;1. For orientation: Size exclusion chromatography separates by hydrodynamic size, large species first.

Data set [3] has as its target T3, RPA (RPA70/RPA32/RPA14) (Saccharomyces cerevisiae, UniProt P22336;P26754;P26755 1-621;1-273;1-122). The data set can be described thus: fluorescence anisotropy; ~2 RPA per DNA; EMSA: 25 mM Tris-Cl pH 7.5, 200 mM NaCl, 5 mM MgCl2, 5% glycerol, 0.05% Tween-20, 25 C; anisotropy/FRET: 30 mM HEPES pH 7.8, 100 mM KCl, 6% glycerol, 5 mM MgCl2, 1 mM bME, 23 C (stopped flow 25 C). The conditions noted are these: protein: recombinant; copies: 1;1;1. In general terms: Fluorescence polarisation rises when a labelled molecule tumbles more slowly, as on binding a larger partner.

Data set [4] addresses T3, RPA (RPA70/RPA32/RPA14). Briefly: fluorescence anisotropy; no Rtt105; 5 mM MgCl2; stoichiometric, apparent Kd; EMSA: 25 mM Tris-Cl pH 7.5, 200 mM NaCl, 5 mM MgCl2, 5% glycerol, 0.05% Tween-20, 25 C; anisotropy/FRET: 30 mM HEPES pH 7.8, 100 mM KCl, 6% glycerol, 5 mM MgCl2, 1 mM bME, 23 C (stopped flow 25 C). The conditions noted are these: protein: recombinant; copies: 1;1;1.

The target of data set [5] is T2, RPA (RPA70/RPA32/RPA14);Rtt105. Briefly: fluorescence anisotropy; Rtt105 1:1; 5 mM MgCl2; stoichiometric, apparent Kd; EMSA: 25 mM Tris-Cl pH 7.5, 200 mM NaCl, 5 mM MgCl2, 5% glycerol, 0.05% Tween-20, 25 C; anisotropy/FRET: 30 mM HEPES pH 7.8, 100 mM KCl, 6% glycerol, 5 mM MgCl2, 1 mM bME, 23 C (stopped flow 25 C). The following applies: protein: recombinant;recombinant; tags: ;; copies: 1;1;1;1.

The target in data set [6] is T1, RPA-DBD-D-Cy3;Rtt105-Cy5 (C13S). The data set can be described thus: FRET titration; ssDNA-induced remodeling of preformed RPA-Rtt105 (200 nM each); EMSA: 25 mM Tris-Cl pH 7.5, 200 mM NaCl, 5 mM MgCl2, 5% glycerol, 0.05% Tween-20, 25 C; anisotropy/FRET: 30 mM HEPES pH 7.8, 100 mM KCl, 6% glycerol, 5 mM MgCl2, 1 mM bME, 23 C (stopped flow 25 C). The following applies: protein: recombinant;recombinant; tags: Cy3 on DBD-D via 4AZP;Cy5 on Cys12; copies: 1;1;1;1.

T3 sequence (P22336 whole entry, chain 1 of 3): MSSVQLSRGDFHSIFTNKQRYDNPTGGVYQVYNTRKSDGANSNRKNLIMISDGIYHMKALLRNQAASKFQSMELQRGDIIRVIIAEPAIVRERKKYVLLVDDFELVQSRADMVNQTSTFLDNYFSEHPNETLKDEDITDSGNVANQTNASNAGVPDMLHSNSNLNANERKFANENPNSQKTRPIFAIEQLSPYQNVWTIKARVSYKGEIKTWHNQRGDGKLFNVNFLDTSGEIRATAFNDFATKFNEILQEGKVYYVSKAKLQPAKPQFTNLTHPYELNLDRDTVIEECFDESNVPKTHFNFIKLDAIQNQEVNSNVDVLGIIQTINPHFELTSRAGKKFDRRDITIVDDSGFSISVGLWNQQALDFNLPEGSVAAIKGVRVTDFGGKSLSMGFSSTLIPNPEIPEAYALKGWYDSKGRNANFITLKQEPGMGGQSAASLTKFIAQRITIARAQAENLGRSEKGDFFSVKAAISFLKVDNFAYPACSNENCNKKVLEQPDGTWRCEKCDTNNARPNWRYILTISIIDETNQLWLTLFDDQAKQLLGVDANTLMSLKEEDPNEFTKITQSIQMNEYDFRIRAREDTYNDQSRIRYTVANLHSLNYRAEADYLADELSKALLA
T3 sequence (P26754 whole entry, chain 2 of 3): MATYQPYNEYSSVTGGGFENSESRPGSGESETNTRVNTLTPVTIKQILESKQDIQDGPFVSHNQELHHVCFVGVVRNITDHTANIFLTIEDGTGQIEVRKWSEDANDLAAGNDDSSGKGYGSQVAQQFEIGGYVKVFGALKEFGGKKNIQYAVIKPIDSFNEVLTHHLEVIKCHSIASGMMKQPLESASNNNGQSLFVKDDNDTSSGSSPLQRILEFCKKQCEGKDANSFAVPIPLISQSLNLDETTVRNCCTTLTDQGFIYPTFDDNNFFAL
T3 sequence (P26755 whole entry, chain 3 of 3): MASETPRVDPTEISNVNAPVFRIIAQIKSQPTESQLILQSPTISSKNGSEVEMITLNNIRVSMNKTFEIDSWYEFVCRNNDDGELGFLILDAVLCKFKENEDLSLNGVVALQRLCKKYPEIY
T1 sequence (P22336 whole entry, chain 1 of 4): as the sequence (P22336 whole entry, chain 1 of 3) above
T1 sequence (P26754 whole entry, chain 2 of 4): as the sequence (P26754 whole entry, chain 2 of 3) above
T1 sequence (P26755 whole entry, chain 3 of 4): as the sequence (P26755 whole entry, chain 3 of 3) above
T1 sequence (P40063 whole entry C13S, chain 4 of 4): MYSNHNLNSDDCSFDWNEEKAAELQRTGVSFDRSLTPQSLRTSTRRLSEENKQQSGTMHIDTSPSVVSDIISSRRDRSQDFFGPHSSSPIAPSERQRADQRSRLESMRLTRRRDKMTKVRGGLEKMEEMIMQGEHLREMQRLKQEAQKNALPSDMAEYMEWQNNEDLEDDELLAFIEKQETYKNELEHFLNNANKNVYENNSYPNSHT
T2 sequence (P22336 whole entry, chain 1 of 4): as the sequence (P22336 whole entry, chain 1 of 3) above
T2 sequence (P26754 whole entry, chain 2 of 4): as the sequence (P26754 whole entry, chain 2 of 3) above
T2 sequence (P26755 whole entry, chain 3 of 4): as the sequence (P26755 whole entry, chain 3 of 3) above
T2 sequence (P40063 whole entry, chain 4 of 4): as the sequence (P40063 whole entry C13S, chain 4 of 4) above, with S13C counted along it

B1: (dT)70 (ssDNA)
DNA: TTTTTTTTTTTTTTTTTTTTTTTTTTTTTTTTTTTTTTTTTTTTTTTTTTTTTTTTTTTTTTTTTTTTTT
Consider B1, for which the “apparent K (half saturation)” value in data set [1] is 42.8 ± 0.37 nM. For the same molecule, the binding result (in data set [2]; in the data set with RPA (RPA70/RPA32/RPA14) [3]) was “binds” each time.
For the molecule TTTTTTTTTTTTTTTTTTTTTTTTTTTTTTTTTTT (ssDNA) [FAM-(dT)35], the Kd with RPA (RPA70/RPA32/RPA14) [4] came out at 4 ± 1.3 nM; in data set [5] it was 2.4 ± 1.2 nM.
Consider TTTTTTTTTTTTTTTTTTTTTTTTTTTTTTTTTTT (ssDNA) [(dT)35], for which the “apparent K (half saturation)” value in data set [6] amounted to 130 ± 10.5 nM.

(Values after publication PMC9440123, “Rtt105 regulates RPA function by configurationally stapling the flexible domains” (Nature Communications, 2022).)
